# B1: C-terminally truncated Saccharomyces cerevisiae tyrosyl-tRNA synthetase (SceTyrRS, residues 1-364) (enzyme, UniProt P36421 1-364, looked up)
# chain: MSSAATVDPNEAFGLITKNLQEVLNPQIIKDVLEVQKRHLKLYWGTAPTGRPHCGYFVPMTKLADFLKAGCEVTVLLADLHAFLDNMKAPLEVVNYRAKYYELTIKAILRSINVPIEKLKFVVGSSYQLTPDYTMDIFRLSNIVSQNDAKRAGADVVKQVANPLLSGLIYPLMQALDEQFLDVDCQFGGVDQRKIFVLAEENLPSLGYKKRAHLMNPMVPGLAQGGKMSASDPNSKIDLLEEPKQVKKKINSAFCSPGNVEENGLLSFVQYVIAPIQELKFGTNHFEFFIDRPEKFGGPITYKSFEEMKLAFKEEKLSPPDLKIGVADAINELLEPIRQEFANNKEFQEASEKGYPVATPQKSK
# Biological target: the molecule itself
# Test: crystal structure
protein,measurement,value
B1,stoichiometry N,2

# From publication PMC1934993 (Nucleic Acids Research, 2007)
